The nature of this data set: cell-surface N1, PE anti-Notch1 flow cytometry, CHO. The settings on record: control: wild type.

Turning to NOTCH1 (N1): T311P, for the setting “glycan lost”, the expression_or_secretion result is recorded as “decreases”.

For the substance NOTCH1 (N1): N386T, the expression_or_secretion result (glycan gained) is “no change”. Turning to NOTCH1 (N1): T349P, the expression_or_secretion result (glycan lost) is on record as “decreases”.

For the origin of these results see paper PMC9672452.
